T1: hRpn10^305–377 (RAZUL, Rpn10 AZUL-binding domain) (human, UniProt P55036 305-377)
T1 construct: Isotope-labelled (15N, 13C, 2H) in some NMR samples; also called hRpn10 RAZUL; source: E. coli Rosetta 2 (DE3), purified (glutathione sepharose, PreScission cleavage, SEC); not shown: GST, N-terminal, cleaved
T1 sequence (looked up): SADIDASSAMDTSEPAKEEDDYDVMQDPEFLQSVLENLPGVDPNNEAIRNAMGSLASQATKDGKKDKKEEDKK

T2: GST-hRpn10^305–377 (human, UniProt P55036 305-377)
T2 construct: pGEX-6P-3; a PreScission site lies between GST and hRpn10; source: E. coli Rosetta 2 (DE3), purified (glutathione sepharose, glutathione elution, SEC); not shown: GST, N-terminal, kept
T2 sequence (looked up): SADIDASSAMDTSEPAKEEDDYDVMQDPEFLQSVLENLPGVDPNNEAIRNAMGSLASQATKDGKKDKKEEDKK


Experiments:
Conditions in all cases: both partners purified
[1] = molecular target: T1, hRpn10^305–377 (RAZUL, Rpn10 …); assay: ITC; 25 °C, MicroCal iTC200; E6AP AZUL injected into hRpn10 305-377 (0.0405 mM) or hRpn10 322-366 peptides (0.01 mM) in the cell; 10 mM MOPS pH 6.5, 50 mM NaCl, 5 mM DTT, 10 μM zinc sulfate; one-site fit
[2] = molecular target: T2, GST-hRpn10^305–377; assay: SPR; Biacore T200; GST-hRpn10 305-377 captured (800 RU) by anti-GST antibody on a CM5 chip, GST on the reference cell; E6AP AZUL 5-250 nM in HBS-P+ with 10 μM zinc sulfate, single cycle kinetics, triplicate
[3] = molecular target: T3, full-length E6AP (Isoform II) (human, UniProt Q05086 1-875); assay: pull-down; 2 nmol His-tagged hRpn10 construct on Ni-NTA agarose, 200 pmol E6AP for 1 h; 10 mM MOPS pH 6.5, 50 mM NaCl, 5 mM 2-mercaptoethanol, 10 μM zinc sulfate; Coomassie staining
T3 construct: E6AP/UBE3A, isoform II, full length; catalytic cysteine C843 in isoform II; also called UBE3A; source: bought: UBPBio K1411

[4] = molecular target: ubiquitin (UniProt P0CG48 1-76); assay: NMR titration; 2D NMR on 15N-hRpn10 196-377, ubiquitin added; 25 °C, 10 mM MOPS pH 6.5, 50 mM NaCl, 5 mM DTT, 10 μM zinc sulfate

T3 sequence (Q05086 whole entry, canonical isoform): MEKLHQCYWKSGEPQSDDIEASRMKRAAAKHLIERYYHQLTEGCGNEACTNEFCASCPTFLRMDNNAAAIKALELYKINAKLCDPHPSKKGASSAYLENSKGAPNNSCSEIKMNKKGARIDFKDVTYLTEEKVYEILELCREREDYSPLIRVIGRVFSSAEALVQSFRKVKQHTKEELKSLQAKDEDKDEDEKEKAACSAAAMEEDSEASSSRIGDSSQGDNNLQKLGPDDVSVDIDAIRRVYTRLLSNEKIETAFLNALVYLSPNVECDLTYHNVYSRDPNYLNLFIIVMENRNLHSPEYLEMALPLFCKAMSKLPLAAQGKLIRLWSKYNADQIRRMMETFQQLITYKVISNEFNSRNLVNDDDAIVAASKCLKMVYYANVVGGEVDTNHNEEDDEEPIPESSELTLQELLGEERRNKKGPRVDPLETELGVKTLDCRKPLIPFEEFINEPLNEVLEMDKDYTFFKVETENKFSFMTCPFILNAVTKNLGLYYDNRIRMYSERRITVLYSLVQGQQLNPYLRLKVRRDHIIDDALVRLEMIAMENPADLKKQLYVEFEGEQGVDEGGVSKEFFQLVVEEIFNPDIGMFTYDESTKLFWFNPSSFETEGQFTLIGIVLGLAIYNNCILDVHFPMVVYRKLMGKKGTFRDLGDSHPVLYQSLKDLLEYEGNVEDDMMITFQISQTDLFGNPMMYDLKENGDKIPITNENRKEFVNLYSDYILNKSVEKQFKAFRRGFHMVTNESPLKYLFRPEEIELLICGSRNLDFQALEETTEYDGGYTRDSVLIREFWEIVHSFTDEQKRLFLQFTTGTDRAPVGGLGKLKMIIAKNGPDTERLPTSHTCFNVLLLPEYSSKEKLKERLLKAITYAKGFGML

Kd [1] [nM]	Kd [2] [nM]	binding result [3]	binding result [4]	Binder
11.6	8.1			E6AP AZUL (amino-terminal zinc-binding domain of ubiquitin E3a ligase), amino acids 24 to 87 (domain or fragment, human, UniProt Q05086 24-87, looked up, E6AP/UBE3A AZUL domain, human, amino acids 24 to 87, subcloned from HA-E6AP isoform II; zinc sulfate in the buffers; Isotope-labelled (15N, 13C) in some NMR samples; also called AZUL domain; source: E. coli BL21 (DE3), purified (Ni-NTA, thrombin cleavage, SEC); not shown: polyhistidine tag, N-terminal, cleaved) MKRAAAKHLIERYYHQLTEGCGNEACTNEFCASCPTFLRMDNNAAAIKALELYKINAKLCDPHP
		binds	binds	His-hRpn10^196–377 (domain or fragment, human, UniProt P55036 196-377, looked up, pET14b with a thrombin site; the methods say that it was eluted with the His-tag intact; 15N-labelled for the NMR experiment with ubiquitin; source: E. coli BL21 (DE3), purified (Ni-NTA, imidazole elution, SEC); not shown: polyhistidine tag, N-terminal, kept) MLGLGASDFEFGVDPSADPELALALRVSMEEQRQRQEEEARRAAAASAAEAGIATTGTEDSDDALLKMTISQQEFGRTGLPDLSSMTEEEQIAYAMQMSLQGAEFGQAESADIDASSAMDTSEPAKEEDDYDVMQDPEFLQSVLENLPGVDPNNEAIRNAMGSLASQATKDGKKDKKEEDKK
		binds		His-hRpn10^full-length (natural protein, human, UniProt P55036 1-377, looked up, human Rpn10 (hRpn10/PSMD4/S5a), full length; pET11d plasmid, a gift from Dr Fumio Hanaoka; also called His6-hRpn10^full-length; source: E. coli BL21 (DE3), purified (Ni-NTA, imidazole elution, SEC); not shown: His6, N-terminal, kept) MVLESTMVCVDNSEYMRNGDFLPTRLQAQQDAVNIVCHSKTRSNPENNVGLITLANDCEVLTTLTPDTGRILSKLHTVQPKGKITFCTGIRVAHLALKHRQGKNHKMRIIAFVGSPVEDNEKDLVKLAKRLKKEKVNVDIINFGEEEVNTEKLTAFVNTLNGKDGTGSHLVTVPPGPSLADALISSPILAGEGGAMLGLGASDFEFGVDPSADPELALALRVSMEEQRQRQEEEARRAAAASAAEAGIATTGTEDSDDALLKMTISQQEFGRTGLPDLSSMTEEEQIAYAMQMSLQGAEFGQAESADIDASSAMDTSEPAKEEDDYDVMQDPEFLQSVLENLPGVDPNNEAIRNAMGSLASQATKDGKKDKKEEDKK

— publication PMC7064531, “Structure of E3 ligase E6AP with a proteasome-binding site provided by substrate receptor hRpn10” (Nature Communications, 2020)
